System: L-aspartate oxidase
Test: Activity test of L-aspartate oxidase variants (H2O2, Amplex Red, absorbance at 560 nm) with NAD added
Assay type: biochemical, E. coli
Experimental: After the recombinant vector pT7-nadB, pT7-nadB67, pT7-nadB67(V), pT7-nadB67(L), pT7-nadB67(I), or pT7-nadB67(H) was transformed into a tuner strain via CaCl2 method, the transformed strain was smeared on a LB-SP (yeast extract 10 g/L, NaCl 5 g/L, tryptone 10 g/L, and spectinomycin […]) plate medium, and cultured overnight at 37[…] to select spectinomycin-resistant colonies. One colony was selected from them and cultured in a LB-SP (yeast extract 10 g/L, NaCl 5 g/L, tryptone 10 g/L, spectinomycin […]) liquid medium, and then a isopropyl-1-thio-β-D-galactopyranoside (IPTG) derivative was added thereto when the growth optical density (OD) value reached to 0.4, and cultured at about 18[…] overnight. Cells including the overexpressed wild type L-aspartate oxidase and L-aspartate oxidase variants were recovered from the culture medium, followed by purification of the wild type L-aspartate oxidase and L-aspartate oxidase variants from the recovered cells by Ni-NTA spin kit (Quiagen, U.S.A). The recovered protein was 50% of a total protein, about 2% of the recovered protein was recovered as L-aspartate oxidase.
The L-aspartate oxidase converts aspartate as a substrate to iminoaspartate in the presence of an FAD as cofactor, and the imminoaspartate is converted b to oxaloacetate. Hydrogen peroxide (H2O2), that is generated through the above-described reaction, was used to identify the activity of the nadB. Absorbance at 560 nm of a reaction product of H2O2 with a product from the reaction was measured using an Amplex Red (Invitrogen, Korea) to determine the activity of the nadB. Here, NAD was added at different concentrations to create a condition for competitive inhibition to FAD so as to evaluate the resistance of L-aspartate oxidase against the feedback regulation by NAD.

B1: Wild type-nadB: His-tagged wild type E. coli L-aspartate oxidase (SEQ ID NO: 1) purified from pT7-nadB expression (protein)
chain: MNTLPEHSCDVLIIGSGAAGLSLALRLADQHQVIVLSKGPVTEGSTFYAQGGIAAVFDETDSIDSHVEDTLIAGAGICDRHAVEFVASNARSCVQWLIDQGVLFDTHIQPNGEESYHLTREGGHSHRRILHAADATGREVETTLVSKALNHPNIRVLERSNAVDLIVSDKIGLPGTRRVVGAWVWNRNKETVETCHAKAVVLATGGASKVYQYTTNPDISSGDGIAMAWRAGCRVANLEFNQFHPTALYHPQARNFLLTEALRGEGAYLKRPDGTRFMPDFDERGELAPRDIVARAIDHEMKRLGADCMFLDISHKPADFIRQHFPMIYEKLLGLGIDLTQEPVPIVPAAHYTCGGVMVDDHGRTDVEGLYAIGEVSYTGLHGANRMASNSLLECLVYGWSAAEDITRRMPYAHDISTLPPWDESRVENPDERVVIQHNWHELRLFMWDYVGIVRTTKRLERALRRITMLQQEIDEYYAHFRVSNNLLELRNLVQVAELIVRCAMMRKESRGLHFTLDYPELLTHSGPSILSPGNHYINR
modifications: His tag; amino acid sequence of nadB
Relative activity (NAD 0 mM): 100% | Relative activity (NAD 0.05 mM): 95% | Relative activity (NAD 0.3 mM): 82% | Relative activity (NAD 0.5 mM): 65% | Relative activity (NAD 1 mM): 22% | Relative activity (NAD 1 mM, listed as wild type L-aspartate oxidase): less than 50%
